Experimental data reported in IntAct's records for PubMed 21984795.

B1: Biopolymer transport protein ExbD (Escherichia coli (strain K12)), P0ABV2 (parent)
chain: MAMHLNENLDDNGEMHDINVTPFIDVMLVLLIIFMVAAPLATVDVKVNLPASTSTPQPRPEKPVYLSVKADNSMFIGNDPVTDETMITALNALTEGKKDTTIFFRADKTVDYETLMKVMDTLHQAGYLKIGLVGEETAKAK
B2: Biopolymer transport protein ExbD (Escherichia coli (strain K12)), P0ABV2 (parent)
chain: B1 chain
partner: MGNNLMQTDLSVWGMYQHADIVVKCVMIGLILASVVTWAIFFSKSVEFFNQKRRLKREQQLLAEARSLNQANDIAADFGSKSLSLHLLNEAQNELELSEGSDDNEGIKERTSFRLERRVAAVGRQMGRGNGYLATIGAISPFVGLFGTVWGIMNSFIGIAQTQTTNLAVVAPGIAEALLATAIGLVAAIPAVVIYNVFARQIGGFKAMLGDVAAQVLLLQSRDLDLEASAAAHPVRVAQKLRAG

Variants of: B1
Conditions: with tonb_ecoli tonB

| effect of a mutation on the interaction | Variant |
| --- | --- |
| increasing interaction | MAMHLNENLDDNGEMHDINVTPFIDVMLVLLIIFMVAAPLATVDVKVNLPASTSTPQPRPEKPVYLSVKADNSMFIGNDPVTDETMITALNALTEGKKDTTIFFRADKTVDCETLMKVMDTLHQAGYLKIGLVGEETAKAK [Y112C] |
| increasing interaction | MAMHLNENLDDNGEMHDINVTPFIDVMLVLLIIFMVAAPLATVDVKVNLPASTSTPQPRPEKPVYLSVKADNSMFIGNDPVTDETMITALNALTEGKKDTTIFFRADKTVDYETLCKVMDTLHQAGYLKIGLVGEETAKAK [M116C] |
| increasing interaction | MAMHLNENLDDNGEMHDINVTPFIDVMLVLLIIFMVAAPLATVDVKVNLPASTSTPQPRPEKPVYLSVKADNSMFIGNDPVTDETMITALNALTEGKKDTTIFFRADKTVCYETLMKVMDTLHQAGYLKIGLVGEETAKAK [D111C] |
| increasing interaction | MAMHLNENLDDNGEMHDINVTPFIDVMLVLLIIFMVAAPLATVDVKVNLPASTSTPQPRPEKPVYLSVKADNSMFIGNDPVTDETMITALNCLTEGKKDTTIFFRADKTVDYETLMKVMDTLHQAGYLKIGLVGEETAKAK [A92C] |
| increasing interaction | MAMHLNENLDDNGEMHDINVTPFIDVMLVLLIIFMVAAPLATVDVKVNLPASTSTPQPRPEKPVYLSVKADNSMFIGNDPVTDETMITALNALTEGKKDTTCFFRADKTVDYETLMKVMDTLHQAGYLKIGLVGEETAKAK [I102C] |
| increasing interaction | MAMHLNENLDDNGEMHDINVTPFIDVMLVLLIIFMVAAPLATVDVKVNLPASTSTPQPRPEKPVYLSVKADNSMFIGNDPVTDETMITALNALTEGKKDTTIFFRACKTVDYETLMKVMDTLHQAGYLKIGLVGEETAKAK [D107C] |
| increasing interaction | MAMHLNENLDDNGEMHDINVTPFIDVMLVLLIIFMVAAPLATVDVKVNLPASTSTPQPRPEKPVYLSVKADNSMFIGNDPVTDETMITALNALTEGKKDTTIFFRADKTCDYETLMKVMDTLHQAGYLKIGLVGEETAKAK [V110C] |
| increasing interaction | MAMHLNENLDDNGEMHDINVTPFIDVMLVLLIIFMVAAPLATVDVKVNLPASTSTPQPRPEKPVYLSVKADNSMFIGNDPVTDETMITALNALTEGKKDTTIFFRADKTVDYCTLMKVMDTLHQAGYLKIGLVGEETAKAK [E113C] |
| increasing interaction | MAMHLNENLDDNGEMHDINVTPFIDVMLVLLIIFMVAAPLATVDVKVNLPASTSTPQPRPEKPVYLSVKADNSMFIGNDPVTDETMITALNALTEGKKDTTIFFRADKCVDYETLMKVMDTLHQAGYLKIGLVGEETAKAK [T109C] |
| increasing interaction | MAMHLNENLDDNGEMHDINVTPFIDVMLVLLIIFMVAAPLATVDVKVNLPASTSTPQPRPEKPVYLSVKADNSMFIGNDPVTDETMITALNALTEGKKDTTIFFRADKTVDYETLMKVMCTLHQAGYLKIGLVGEETAKAK [D120C] |
| increasing interaction | MAMHLNENLDDNGEMHDINVTPFIDVMLVLLIIFMVAAPLATVDVKVNLPASTSTPQPRPEKPVYLSVKADNSMFIGNDPVTDETMITALNALTEGKKDTTIFFRADCTVDYETLMKVMDTLHQAGYLKIGLVGEETAKAK [K108C] |
| increasing interaction | MAMHLNENLDDNGEMHDINVTPFIDVMLVLLIIFMVAAPLATVDVKVNLPASTSTPQPRPEKPVYLSVKADNSMFIGNDPVTDETMITALNALTECKKDTTIFFRADKTVDYETLMKVMDTLHQAGYLKIGLVGEETAKAK [G96C] |

Variants of: B2
Conditions: with exbb_ecoli exbB

| effect of a mutation on the interaction | Variant |
| --- | --- |
| increasing interaction | MAMHLNENLDDNGEMHDINVTPFIDVMLVLLIIFMVAAPLATVDVKVNLPASTSTPQPRPEKPVYLSVKADNSMFIGNDPVTDETMITALNALTEGKKDTTIFFRADKTVDCETLMKVMDTLHQAGYLKIGLVGEETAKAK [Y112C] |
| disrupting interaction | MAMHLNENLDDNGEMHDINVTPFINVMLVLLIIFMVAAPLATVDVKVNLPASTSTPQPRPEKPVYLSVKADNSMFIGNDPVTDETMITALNALTEGKKDTTIFFRADKTVDYETLMKVMDTLHQAGYLKIGLVGEETAKAK [D25N] |
| increasing interaction | MAMHLNENLDDNGEMHDINVTPFIDVMLVLLIIFMVAAPLATVDVKVNLPASTSTPQPRPEKPVYLSVKADNSMFIGNDPVTDETMITALNALTEGKKDTTIFFRADCTVDYETLMKVMDTLHQAGYLKIGLVGEETAKAK [K108C] |
| increasing interaction | MAMHLNENLDDNGEMHDINVTPFIDVMLVLLIIFMVAAPLATVDVKVNLPASTSTPQPRPEKPVYLSVKADNSMFIGNDPVTDETMITALNALTEGKKDTTIFFRADKTVDYCTLMKVMDTLHQAGYLKIGLVGEETAKAK [E113C] |
| increasing interaction | MAMHLNENLDDNGEMHDINVTPFIDVMLVLLIIFMVAAPLATVDVKVNLPASTSTPQPRPEKPVYLSVKADNSMFIGNDPVTDETMITALNALTEGKKDTTIFFRADKTVDYETLCKVMDTLHQAGYLKIGLVGEETAKAK [M116C] |
